Assay: protease stability score; higher = more stable; yeast display proteolysis, trypsin and chymotrypsin;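 also: log10 excess protease needed over predicted unfolded state with 0 meaning unfolded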

| Sequence | protease stability score |
| --- | --- |
| DESKQKQFEHFLEVVKTGNEEDLRKNMDKDVRVQIGDKQVHGRENIASELVRRQKEIKLHIRDMRIDVHNGRVQASVDVVDNINGKPTRYSYRFEYNIENGKLKSARIHIDPDQVRKVEE | 1.03 |
| DESKQRTFAEELLTAWETGNDDQARKLADPNVRFHIGDKEISGRENFAKWAKEVRDRVDHIRYEHIEIRGEKVRVNVQLEFDGKTERRVIVFNVHDGQVKSMDVKTT | 1.34 |
| DESKVNEIVQKFVNAVREGNENHLRSLMDKDVTLHVGDRTWHGREQVASFMAHVAKRVDRIRIVHIEIHGDKANVNVRFDVNGTEVQLTMDIRIKNGRIMKIHMSPEDEKKLQG | 1.76 |
| DESLADVFRRLLEAYRNGDEQKLRDNVDPNAKFNIGDKRFSGREQFARDMHKERKEIRVSIQLHEYDNQGEDVDFTFQFSAEVNGEPVHDTVRVEVHAHNGKIKRVHMHMSEKFQHQLRG | -0.027 |
| DESLAEQWMRDIKSNNEERFRRYVDPNVHADVGNFKVHGRHDLVEQLRKLLEQVDHLDYHSVSADGDDVTVDVVIDVNGNTVRYELIVRFHNGQAHSLQMHVTNPDQDRQLHEVVK | -0.013 |
| DESLEDMARQLNTALQTNNPESVKEMFDKNARLEVGDKTWKGREHIDQWANRLRDEIRYEVRRFDLRVHGDKIEVNVHEEIQINGRPKSVSYSYTMRAHNGRIKHARYQPDPDAERRKKK | 0.031 |
| DESLEERLDTLRKVEEQGDEDTAREQADPNVKIVVGDRRVHGMDEQLEELRRRVKEARVTIESLSVDAHGDKVDVKVRLTFTIDGRPASVNLHQHYQLQNGKFKHVEARFSEEDRDELQT | 0.846 |
| DESLHRWYERLQEALEHGDEDRLRKNADKDVQVDVGDKRVHGSEHYAHELVRESREMDFHIHRMEVSVTGNRITVDYVYDREHNGTPQSKRVQERYQAHNGKLKRASVQETD | -0.093 |
| DESLMKVAQEVHDAWNQGDPTKLQENFDKDAEIQVGDKQIHGREDATRELDRKKKQQRFEVQVTSMTAQNGDVKVDARFHFKHNGRPDERRFKLTINAENGRIQEASIDQTK | -0.151 |
| DESLQHMAEEMLEVWQTGDKERAATMMDKDARVRVGDHTVRGRESLQKNIETEKEQMRVQIRHVDARVHNGRVDVKVEVELDHNGKPQRVVYNIDFRAHNGRVQEIHIQEDG | -0.181 |
| DESLRKLLERIWRALTSGDPDELRKLADEDAKFQIGDKRINGMNEAAERWATRVRQLRVRIEDVKQHVEGDKVEAHLDVVREKNGQPQKHEEHVRMRAEGDRAKELVIQISQ | 0.031 |
| DESLRSKAEEFLKAIEHGDPDEASRQLDPNARFEIGDKEITGRETFDRTMHETRNQMRLEVKSYDARASNGRVHMEVRFQATHNGQPQDNREVQDFQFSNGRIERVSVEKDS | -0.463 |
| DESLVEILKKLAKAFNENDPDHLVKLFDEDARLDYGDTSVHGREQIKRLMEDWKRRMTVKIRVNHIDVKNGRAQMKADLTIRHNGKPDTNKVEVELHAHNGRNKEVVFERTK | 0.279 |
| DESMQKEVHDFLKAQMTNNEDQLRRQADPNARFVYGNKTLHGMDQAAKHLVKLYREATFRIESVSIDAQGDKADIKQTFIVDINGKPDRDTADIKIKFHNGTIKEVNIQVDEEKERKIRS | -0.218 |
| DESNREVYQKLLNAQTKGDEETAKELADPNASVQIGDKQIHGMDQYVKQMTRDKRRARVRIRDVRVDVQGDNIRVSAHFQEDHNGKPDERTMTQSYKVENGKMKSASVHSLS | -0.124 |
| DESQAEALHEVLQAERTNDPKKVEEQMDPHVNIVIGDKTYHGRDRIREDVKRKIDEMRVHVESVRFDEQGDKARAEATLRYNHNGRPSSKKIVIQMKAENGQIKTMRVHDTK | -0.646 |
| DESQAKEFVDNFKTNNREELQKQVDKDAKMIVGNKEYHGEEQVQDALRDLNEEVDHLTIKSVELKGNSVTIYFIIVINGTRMTVHVVAVFHNGRVKKEVWTATDEDDKRKIDQVVG | 0.281 |
| DESQHQSLAKNLVRIFEEGDEDDVRKLADKDARLEVGDHELRGREQVAKFYKRVRDRIDELEIRDVHVQGERVSVHVVVRYNGRHVDFKINIVAHNGRITRVRVDPDRFRQLHS | 1.64 |

| Sequence | protease stability score |
| --- | --- |
| DESQLELVKELLDVLQTGNPDEARQLVDKDVNIRIGDRVIHGREQLQSHVEKVKREQQVHVNITDMKVKGDKIKVVAQYKNHHNGQPSHNKMVLDAEVNGDKIHRMEYKSQS | -0.453 |
| DESQQKHLTRLLEDNDFDRLAELADKHVRVEYGDQSYQGRETFQEMQEKLKKRADHLTYRSIDNQGDKIKVDFVLNVNGKDVRLQFDFRFNNGHIKEMTITATSEENLHKFEEALS | -0.094 |
| DESQVDEAKKMAKVWEDGDPDQLRRMADPNAKMHIGDKDIRGHTEATRWVRHLSEHMRQRLDSVRVDTEPNRAEAKIQLTVDVNGKPDRYTAHLNMVVDNGRVRKLEVRFDEEDKKRRQS | -0.139 |
| DESRKAREYMDKFKEIMDTGDPDKLRNLVPPDVTMQYGDRSLKGREEFVEHLQELLERADHVDVTVVDVKQDGDQLHFEVRVTYEENGERREYTFVFVAIVQGDKVRVKEMREK | 0.065 |
| DESVENTVTEILEAEQQNNEEELRRLADPNAEVRVGEKTIHGMDEAVHQIAHELKQQRVEYSDMKISVNNGRARIDVEVEVEKNGRPHTSHYERTIEMHNGRMTHMEQRDDG | -0.524 |
| DESVKERMKRILETGDWKKLVEMADEDASVKVGEKEFHGREQVSDFFKELQDQADTQEIKHVSVHGEHVVNTMVIRFNGKEVHLVLTVQLTNGKIHSASVKFTSEEHHKIMLRAIS | 0.257 |
| DESVLEMAERIIEAFNNGDPERAVNQADPNVKITVGDKSITGREDLRRELEKQLKEQEQHIQVLRVTDHNGQAQMDIRMTSEKNGNPDHRRATVQFHATNGKLQTMRVDQRG | -0.599 |
| DESVRRNFEDLLRAEETGDPDRVMDLVDPNARIQVGDKYLQGREQIDETMERHKSEIRFSIDRLSATDHNGVVDVTMSMKKNVNGKPKKFRAEVNVKAHNGKLKLLDMKIDG | -0.284 |
| DESVTEQANKMLDNIEKNNPEKVREQVDPNAKLQIGDKTLSGREHVQKQVEREMKDISVTRDLKSVNVRNGRAVFDMTVDFDVNGKPIHAHQVMEVQATNGRIKSVTYKIDTEELRKIDK | -0.499 |
| DETAARDVEELLTHVKTNNPENVVKLADPNAKAKIGDQTVKGREELTKQMTKELRHQRMSVEIKDYKVHGNKVVIDAEFTYNHNGRPQKKDVEIYVVFRGEKIEKFVWRTDG | 0.627 |
| DETAERLEHQLKSALETGDEESAKKQFDPNVKFQYGDKVIHGMENAIERIVKRLKELHVSVELKSMHVEGNNIQADLVATENHNGQPRTRRFTLHVTWRNGRIQEIRQQDTK | 1.31 |
| DETAISVAKTMFEAMESNDPDEVRRQADPNATFVIGDKNYHGMETYAKEVKKRNDKIDVQLQDMDITDQGEDADIKQVAVFTHDGRPKKVVIHWDISVRNGRIKFVHADQRG | -0.4 |
| DETAKKHFEELMKVWKHGDFRRAQELLDPNVRVVIGDQQFHGREDVAKKIAEHLHRMEVEIKDYRVKNDGEKIHIEVDAVFERNGRPERRRYVAVYRVHNGRFKEMSQQEDK | 1.05 |
| DETAKKNVELYVQAFEDNDERKLNHMMDPNAHFRIGDRNVHGRDQVKDEVEKRRKEQSVKFKDVKVDVQGDKATIEIRWVVDKNGEPTEDVHKVDLKIHNGRAKYMQWDSVR | -0.07 |
| DETALRIAEDWFRALQNGNPERMQENVDPNARVQIGDKELHGREQIHELAQKIKEEMRIEVNITHVDVHGEHLRLEFDIRVDINGKPVTNHNTAEFNVENGSIKHISFDIDPRQLNKMQK | 0.746 |
| DETAMEVAERFLENINNGNPEEATKQFDPNARFIVGDKRLTGQEQVKSEIEDQKKHIDVNYDVKRVEIDGDKALLELDVQNEHNGRPRTDSAVITMEAHNGKITHMQRDHDG | -0.594 |
| DETAQDLVTTLIEAWKTNDPDSVANLMDPNATVKIGDKSVHGKKQLEEMLKKLRDEMTIDIKRVDVKVNNGDAKVNARATFTHNGKPDSRTMSAEVEWNGDKVKEFRVHWEQ | 1 |
| DETAQEQAKKLFQARQTNDPDKVNNLLDENARVNIGDTSVQGREDASKEVERQHRESHQSVELKEVKVDGDHVELHYVLTKQENGKPDSNKASMNVQIHNGKAQDVQIQTSK | -0.35 |

— the NTF2 design screens of Basanta et al. (2020)
